Test results from patent US20240011000.

Key:
Bst 2.0 DNA polymerase = Bst 2.0 DNA polymerase (UniProt P52026); settings: RT-LAMP-OSD, 300 genomes, isothermal buffer, 65 C
[1] = system: Br512 (villin headpiece HP47-Bst-LF fusion DNA polymerase) (Geobacillus stearothermophilus / Gallus gallus fusion)
[2] = system: Bst-LF (DNA polymerase I large fragment) (Geobacillus stearothermophilus); settings: RT-LAMP-OSD, G6D buffer, 65 C

Chain of UniProt P52026 (P52026 297-876): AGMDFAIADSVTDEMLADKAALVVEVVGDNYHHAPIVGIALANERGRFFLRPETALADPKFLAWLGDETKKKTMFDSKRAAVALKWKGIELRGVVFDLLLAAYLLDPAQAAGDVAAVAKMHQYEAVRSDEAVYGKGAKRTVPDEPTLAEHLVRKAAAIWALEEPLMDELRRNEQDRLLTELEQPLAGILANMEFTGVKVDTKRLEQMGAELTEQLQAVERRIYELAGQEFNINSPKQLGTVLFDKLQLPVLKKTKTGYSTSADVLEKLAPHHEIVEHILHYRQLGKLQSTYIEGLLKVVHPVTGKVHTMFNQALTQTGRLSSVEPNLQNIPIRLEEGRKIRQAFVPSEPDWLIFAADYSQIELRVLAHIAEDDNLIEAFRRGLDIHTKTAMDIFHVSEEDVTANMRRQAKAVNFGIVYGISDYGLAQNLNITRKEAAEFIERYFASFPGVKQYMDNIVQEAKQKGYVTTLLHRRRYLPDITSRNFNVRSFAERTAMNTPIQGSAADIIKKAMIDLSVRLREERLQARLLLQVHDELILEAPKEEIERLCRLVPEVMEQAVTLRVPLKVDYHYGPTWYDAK

Substance | activity (% assays positive) (Bst 2.0 DNA polymerase) | activity (% assays positive) [1] | activity (% assays positive) [2]
SARS-CoV-2 RNA, NB (N gene) target | 25 | 80 | 16
SARS-CoV-2 RNA, 6-Lamb target | 75 | 100 | 33
